The source of these data is paper PMC4072508, “Genome-Wide Prediction and Validation of Peptides That Bind Human Prosurvival Bcl-2 Proteins” (PLoS Computational Biology, 2014).

Sequences and labels used below:
B1: FIBIN (peptide)
chain: GRQVEDAGRVLEGISKSISYDLDGEE
B2: COG8 (peptide)
chain: WRERPDVGRYLRELSGSGLERLRREP
B3: FHOD1 (peptide)
chain: LASIGGLAARLQLWAFKLDYDSMERE
B4: COMMD2 (peptide)
chain: PKIYEGAARKLNVSSDTVQHGVEGLT
B5: CASP5 (peptide)
chain: DNHKKKTVKMLEYLLKDVLHGVFNYL
B6: AGBL2 (peptide)
chain: SSLSDGLPVHDANIADELTQKKKMFK
B7: CACNA1G (peptide)
chain: VYILRKAARRDAQVSRAAGVRVGLLS
B8: C8orf37 (peptide)
chain: TNISWRACDHLRCILCDFLVVSYDDY
B9: ANKRD17 (peptide)
chain: ENGHTDVADVLLQAGADLEHESEGGR
B10: USP36 (peptide)
chain: AIKPVSFIRDDKKIARHFRFGNQEDA
B11: SPTBN4 (peptide)
chain: RRRLLLASKELHQVAHDLDDELAWVQ
B12: AGBL2 (peptide)
chain: SSLSDGLPVHLANILDELTQKKKMFK
B13: OTC (peptide)
chain: NESLTDTARVLSSMADAVLARVYKQS
B14: CCDC138 (peptide)
chain: GAQHSTMTSTLRRLLEDIFKGVVTKG
B15: MON1A (peptide)
chain: SQDFSELSTQLTGVARDLQEEMLPGS
B16: HSPA9 (peptide)
chain: GENIRQAASSLQQASLKLFEMAYKKM
B17: PION (peptide)
chain: DISLSNSGFKDVNFGCDYHQYRDKFS
B18: NUF2 (peptide)
chain: KTALEKYHDGIEKAAEDSYAKIDEKT
B19: FAM43B (peptide)
chain: AHKARALARLLRQTLLAAFSDFKRLQ
B20: PXT1 (peptide)
chain: EEIIHKLAMQLRHILDNIDHRMVRED
B21: CCDC138 (peptide)
chain: GAQHSTMTSTDRRLGEDIFKGVVTKG
B22: KLC1 (peptide)
chain: GKDHPDVAKQLNNLALLCQNQGKYEE
B23: FIGN (peptide)
chain: DISALTASNLLKKYLEKYSGILEGPV
B24: mTOR (peptide)
chain: GELAQVSGLEMRKWLDELFIIIMDML
B25: SRGAP3 (peptide)
chain: DIFMNNVIVRLSQISEDVIRLFKKSK
B26: ZW10 (peptide)
chain: TCRISESVKKLMELAYQTLLEATTSS
B27: APOL5 (peptide)
chain: KFELEQNIKELNTLADQVDTTHELLT
B28: C1orf9 (peptide)
chain: EVNMSLSGRYLEELSQRYRKQMEEMQ
B29: LAMC1 (peptide)
chain: YEQAKNISQDLEKQAARVHEEAKRAG
B30: EVI5 (peptide)
chain: PHQFDGVPDKDIQAAYQVKYNSKKMK
B31: C6orf223 (peptide)
chain: RGRTRGWVQTLARMSRRTRGPVERAA
B32: CCDC129 (peptide)
chain: HSEITPYATDLAQTSEKLIPHLHKLP
B33: UGGT2 (peptide)
chain: TREAQKMAQLLVVLGKIINMKIKLFM
B34: RAPGEF2 (peptide)
chain: VIKQRRLPDQLSKLLDRIQLSGRYYL
B35: LDB3 (peptide)
chain: NPIGLYSAETLREMAQMYQMSLRGKA
B36: OPHN1 (peptide)
chain: EVDVGKLVSRLQDGGTKITPKATNGP
B37: FAM43B (peptide)
chain: AHKARALARLDRQTALAAFSDFKRLQ

The target of this experiment is Bcl-xL, Q07817. Put plainly: peptide SPOT array, c-Myc-tagged receptor at 1 uM or 100 nM, anti-c-Myc-Cy3.
Chain of Bcl-xL, Q07817 (Q07817 1-209): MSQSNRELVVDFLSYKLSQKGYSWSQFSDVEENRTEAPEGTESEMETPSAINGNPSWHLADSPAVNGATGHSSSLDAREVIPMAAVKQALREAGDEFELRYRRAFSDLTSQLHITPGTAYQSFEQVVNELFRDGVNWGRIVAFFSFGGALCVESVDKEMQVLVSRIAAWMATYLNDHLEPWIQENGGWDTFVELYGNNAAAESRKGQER
Consider B1, for which the SPOT signal as a fraction of Bim BH3's signal on the same receptor and array came to 0.02.

With B2, the SPOT signal as a fraction of Bim BH3's signal on the same receptor and array came out at 0.09.

B3 showed an SPOT signal as a fraction of Bim BH3's signal on the same receptor and array of 0.03.

B4 showed an SPOT signal as a fraction of Bim BH3's signal on the same receptor and array of 0.03.

Molecule B5 yielded an SPOT signal as a fraction of Bim BH3's signal on the same receptor and array of 0.24.

In turn, B6 registered an SPOT signal as a fraction of Bim BH3's signal on the same receptor and array of 0.03.

For the molecule B7, the SPOT signal as a fraction of Bim BH3's signal on the same receptor and array amounted to 0.94.

As for B8, the SPOT signal as a fraction of Bim BH3's signal on the same receptor and array was found to be 0.03.

On to B9, for which the SPOT signal as a fraction of Bim BH3's signal on the same receptor and array was found to be 0.02.

With B10, the SPOT signal as a fraction of Bim BH3's signal on the same receptor and array came to 1.34.

B11 registered an SPOT signal as a fraction of Bim BH3's signal on the same receptor and array of 0.06.

As for B12, the SPOT signal as a fraction of Bim BH3's signal on the same receptor and array turned out to be 0.1.

As to B13, the SPOT signal as a fraction of Bim BH3's signal on the same receptor and array amounted to 0.03.

For B14, the SPOT signal as a fraction of Bim BH3's signal on the same receptor and array was determined as 0.19.

For the molecule B15, the SPOT signal as a fraction of Bim BH3's signal on the same receptor and array amounted to 0.03.

B16 showed an SPOT signal as a fraction of Bim BH3's signal on the same receptor and array of 0.09.

B17 registered an SPOT signal as a fraction of Bim BH3's signal on the same receptor and array of 0.03.

With B18, the SPOT signal as a fraction of Bim BH3's signal on the same receptor and array is 0.02.

Regarding B19, the SPOT signal as a fraction of Bim BH3's signal on the same receptor and array turned out to be 0.59.

As to B20, the SPOT signal as a fraction of Bim BH3's signal on the same receptor and array turned out to be 0.02.

The molecule B21 yielded an SPOT signal as a fraction of Bim BH3's signal on the same receptor and array of 0.03.

As to B22, the SPOT signal as a fraction of Bim BH3's signal on the same receptor and array came out at 0.02.

Molecule B23 had an SPOT signal as a fraction of Bim BH3's signal on the same receptor and array of 0.13.

With B24, the SPOT signal as a fraction of Bim BH3's signal on the same receptor and array is 0.02.

The molecule B25 displayed an SPOT signal as a fraction of Bim BH3's signal on the same receptor and array of 0.18.

In turn, B26 yielded an SPOT signal as a fraction of Bim BH3's signal on the same receptor and array of 0.04.

B27: the SPOT signal as a fraction of Bim BH3's signal on the same receptor and array came to 0.02.

In turn, B28 displayed an SPOT signal as a fraction of Bim BH3's signal on the same receptor and array of 0.03.

For the molecule B29, the SPOT signal as a fraction of Bim BH3's signal on the same receptor and array turned out to be 0.03.

The molecule B30 had an SPOT signal as a fraction of Bim BH3's signal on the same receptor and array of 0.58.

On to B31, for which the SPOT signal as a fraction of Bim BH3's signal on the same receptor and array turned out to be 0.75.

The molecule B32 returned an SPOT signal as a fraction of Bim BH3's signal on the same receptor and array of 0.02.

B33: the SPOT signal as a fraction of Bim BH3's signal on the same receptor and array came to 0.1.

For the molecule B34, the SPOT signal as a fraction of Bim BH3's signal on the same receptor and array came to 0.84.

The molecule B35 had an SPOT signal as a fraction of Bim BH3's signal on the same receptor and array of 0.3.

B36 registered an SPOT signal as a fraction of Bim BH3's signal on the same receptor and array of 0.02.

As for B37, the SPOT signal as a fraction of Bim BH3's signal on the same receptor and array came to 1.22.
